According to patent US20250137008A1 (UNIVERSITY OF GLASGOW, published 2025):
Values belong to the binder of their own block, whether it stands above or below them.

B5: full-length GORK channel (GORK-Cub bait fusion) (other)
chain: MGRLRRRQEIIDHEEEESNDDVSSRRGKLSLAETFRWLDSSEHRRIETDGHNDYKYIIHPKNRWYKAWEMFILVWAIYSSLFTPMEFGFFRGLPERLFVLDIVGQIAFLVDIVLQFFVAYRDTQSYRTVYKPTRIAFRYLKSHFLMDFIGCFPWDLIYKASGKHELVRYLLWIRLFRVRKVVEFFQRLEKDTRINYLFTRILKLLFVEVYCTHTAACIFYYLATTLPPEQEGYTWIGSLKLGDYSYENFREIDLWKRYTTALYFAIVTMATVGYGDIHAVNLREMIFVMIYVSFDMVLGAYLIGNVTALIVKGSNTERFRDKMNDLISFMNRKKLGRDLRSQITGHVRLQYDSHYTDTVMLQDIPASIRAKIAQLLYLPYIKKVPLFKGCSTEFINQIVIRLHEEYFLPGEVITEQGNVVDHLYFVCEGLLEALVTKTDGSEESVTLLGPHTSFGDISIICNISQPFTVRVCELCHLLRLDKQSFSNILEIYFHDGRTILNNIMEEKESNDRIKKLESDIVIHIGKQEAELALKVNSAAFQGDFYQLKSLIRSGADPNKTDYDGRSPLHLAACRGYEDITLFLIQEGVDVNLKDKFGHTPLFEAVKAGQEGVIGLLVKEGASFNLEDSGNFLCTTVAKGDSDFLKRLLSSGMNPNSEDYDHRTPLHVAASEGLFLMAKMLVEAGASVISKDRWGNSPLDEARLCGNKKLIKLLEDVKNAQSSIYPSSLRELQEERIERRKCTVFPFHPQEAKEERSRKHGVVVWVPSNLEKLIVTAAKELGLSDGASFVLLSEDQGRITDIDMISDGHKLYMISDTTDQT
notes: Full-length channel expressed in yeast as a Cub bait fusion (mbSUS) and in vivo as an rBiFC partner; also called full-length GORK channel Y-Cub fusion; Guard cell Outward Rectifying Potassium (K+) channel

How the values were obtained:
[1] = target: the molecule itself; assay: gel filtration of soluble N-termini (self-association)
[2] = target: B5; assay: rBiFC in vivo, confocal imaging
[3] = target: B5; assay: mbSUS, GORK-Cub bait
full-length KAT1 = target: T1, full-length KAT1 (UniProt Q39128 1-677, limits assumed); assay: mbSUS, GORK-Cub bait
T1 construct: whole, on cells; Nub-X prey in mbSUS in yeast

[4] = target: T2, KAT1 voltage sensor domain (kVSD) (UniProt Q39128 1-200, limits assumed); assay: mbSUS, GORK-Cub bait
T2 construct: domain: voltage sensor domain (VSD); Nub-X prey in mbSUS; rBiFC partner; also called KAT1 VSD; VSD of KAT1
T2 sequence (looked up): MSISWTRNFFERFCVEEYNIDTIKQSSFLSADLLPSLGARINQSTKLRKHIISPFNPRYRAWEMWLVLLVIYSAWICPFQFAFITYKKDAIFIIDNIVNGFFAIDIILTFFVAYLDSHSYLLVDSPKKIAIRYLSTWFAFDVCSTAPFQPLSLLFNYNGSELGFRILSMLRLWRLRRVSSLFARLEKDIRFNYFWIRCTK

B1: kVSD N-terminus (soluble) (other, UniProt Q39128 1-63, looked up)
chain: MSISWTRNFFERFCVEEYNIDTIKQSSFLSADLLPSLGARINQSTKLRKHIISPFNPRYRAWE
notes: domain: cytosolic N-terminus; Gel filtration construct; also called kVSD N-termini; KAT1 N-terminus
binding result [1]: no binding

binding result [2]: no binding
B2: gVSD^NP (other)
chain: MGRLRRRQEIIDHEEEESNDDVSSRRGKLSLAKTFRWLKSSKKRRIKTKGKNKYKYIIKPKNRWYKAWEMFILVWAIYSSLFTPMEFGFFRGLPERLFVLDIVGQIAFLVDIVLQFFVAYRDTQTYRTVYKPTRIAFRYLKSHFLMDFIGCFPWDLIYKASGKHELVRYLLWIRLFRVRKVVEFFQRLEKDTRINYLFTRILK
notes: All negatively-charged amino acids (Asp, Glu) of the N-terminal charged domains replaced with Lys

binding result [3]: no binding
B3: gVSD^PN (other)
chain: MGRLRRRQEIIDHEEEESNDDVSSDDGDLSLAETFDWLDSSEDDDIETDGDNDYDYIIDPKNRWYKAWEMFILVWAIYSSLFTPMEFGFFRGLPERLFVLDIVGQIAFLVDIVLQFFVAYRDTQTYRTVYKPTRIAFRYLKSHFLMDFIGCFPWDLIYKASGKHELVRYLLWIRLFRVRKVVEFFQRLEKDTRINYLFTRILK
notes: All positively-charged residues of the N-terminal charged domains replaced with negatively-charged residues

B4: gVSD^NP N-terminus (soluble) (other)
chain: MGRLRRRQEIIDHEEEESNDDVSSRRGKLSLAKTFRWLKSSKKRRIKTKGKNKYKYIIKPKNRWYKAWE
notes: also called gVSDNP N-termini
binding result [1]: no binding

Binder: B5
binding result (full-length KAT1): no binding | binding result [4]: no binding
